Experimental findings from paper PMC6278910, “Reduced structural flexibility for an exonuclease deficient DNA polymerase III mutant†” are described below.

In series [1] the target is T1, Pol III alpha Y453A (clamp-binding enhanced);Pol III epsilon exonuclease (clamp-binding enhanced);Pol III … (Escherichia coli;Escherichia …, UniProt P10443;P03007;P0ABS8;P0A988 1-1160;1-243;1-76;1-366, Y453A;A921L;M923L|T183L;M185L;A186P;F187L|E41C|). Kind of series: smFRET; dCTP, Mg2+; kon,fast 0.7±0.1, kon,slow 0.05±0.01, koff 0.40±0.02 s-1; 20 mM Hepes pH 7.6, 5 mM potassium glutamate, 3 mM magnesium acetate, 2 mM DTT, 2 mM Trolox, 25 nM enzyme, 10 uM dCTP; temperature not stated. PIFE with unlabeled Pol III alpha or alpha-epsilon at 25 nM showed no binding (DNA not specified, not listed). To be noted: protein: recombinant;recombinant;recombinant;recombinant, (HisTrap purification), Cy5 maleimide at C41;, copies: 1;1;1;2, label: 5' biotin-TEG and Cy3 (amino dT-C6) on template, 7 nt upstream from primer 3' terminus, 5' overhang 14 nt on template, matched G:ddC terminus.

The target of series [2] is T2, Pol III alpha (clamp-binding enhanced; called wild type);Pol III epsilon exonuclease (clamp-binding … (Escherichia coli;Escherichia …, UniProt P10443;P03007;P0ABS8;P0A988 1-1160;1-243;1-76;1-366, A921L;M923L|T183L;M185L;A186P;F187L|E41C|). Kind of series: smFRET; dCTP, Mg2+; kon,fast 0.8±0.1, kon,slow 0.030±0.010, koff 0.20±0.01 s-1 (25 nM enzyme); 20 mM Hepes pH 7.6, 5 mM potassium glutamate, 3 mM magnesium acetate, 2 mM DTT, 2 mM Trolox, 25 nM enzyme, 10 uM dCTP; temperature not stated. PIFE with unlabeled Pol III alpha or alpha-epsilon at 25 nM showed no binding (DNA not specified, not listed). To be noted: protein: recombinant;recombinant;recombinant;recombinant, (HisTrap purification), Cy5 maleimide at C41;, copies: 1;1;1;2, label: 5' biotin-TEG and Cy3 (amino dT-C6) on template, 7 nt upstream from primer 3' terminus, 5' overhang 14 nt on template, matched G:ddC terminus.

For series [3], the target named is T1, Pol III alpha Y453A (clamp-binding …). Kind of series: smFRET; non-hydrolyzable dCTP analog (stated for wild type), Mg2+; kon,fast 0.8±0.1, kon,slow 0.04±0.01, koff 0.30±0.01 s-1; 20 mM Hepes pH 7.6, 5 mM potassium glutamate, 3 mM magnesium acetate, 2 mM DTT, 2 mM Trolox, 25 nM enzyme, 10 uM dCTP; temperature not stated. PIFE with unlabeled Pol III alpha or alpha-epsilon at 25 nM showed no binding (DNA not specified, not listed). Conditions: protein: recombinant;recombinant;recombinant;recombinant, (HisTrap purification), Cy5 maleimide at C41;, copies: 1;1;1;2, label: 5' biotin-TEG and Cy3 (amino dT-C6) on template, 7 nt upstream from primer 3' terminus, 5' overhang 14 nt on template, matched G:C terminus.

The target in series [4] is T2, Pol III alpha (clamp-binding enhanced; …). Kind of series: smFRET; non-hydrolyzable dCTP analog, Mg2+; kon,fast 0.6±0.1, kon,slow 0.020±0.007, koff 0.20±0.01 s-1; 20 mM Hepes pH 7.6, 5 mM potassium glutamate, 3 mM magnesium acetate, 2 mM DTT, 2 mM Trolox, 25 nM enzyme, 10 uM dCTP; temperature not stated. PIFE with unlabeled Pol III alpha or alpha-epsilon at 25 nM showed no binding (DNA not specified, not listed). Conditions: protein: recombinant;recombinant;recombinant;recombinant, (HisTrap purification), Cy5 maleimide at C41;, copies: 1;1;1;2, label: 5' biotin-TEG and Cy3 (amino dT-C6) on template, 7 nt upstream from primer 3' terminus, 5' overhang 14 nt on template, matched G:C terminus.

In series [5] the target is T1, Pol III alpha Y453A (clamp-binding …). Kind of series: smFRET; dCTP, Mg2+; kon N.D., koff 0.30±0.02 s-1; 20 mM Hepes pH 7.6, 5 mM potassium glutamate, 3 mM magnesium acetate, 2 mM DTT, 2 mM Trolox, 25 nM enzyme, 10 uM dCTP; temperature not stated. PIFE with unlabeled Pol III alpha or alpha-epsilon at 25 nM showed no binding (DNA not specified, not listed). Conditions: protein: recombinant;recombinant;recombinant;recombinant, (HisTrap purification), Cy5 maleimide at C41;, copies: 1;1;1;2, label: 5' biotin-TEG and Cy3 (amino dT-C6) on template, 7 nt upstream from primer 3' terminus, 5' overhang 14 nt on template, terminal double mismatch.

Series [6] deals with T2, Pol III alpha (clamp-binding enhanced; …). Described as above. To be noted: protein: recombinant;recombinant;recombinant;recombinant, (HisTrap purification), Cy5 maleimide at C41;, copies: 1;1;1;2, label: 5' biotin-TEG and Cy3 (amino dT-C6) on template, 7 nt upstream from primer 3' terminus, 5' overhang 14 nt on template, terminal double mismatch.
Series [7] deals with T1, Pol III alpha Y453A (clamp-binding …). Kind of series: smFRET; dCTP, Mg2+; kon,fast 0.6±0.1, kon,slow 0.05±0.01, koff 0.30±0.01 s-1; 20 mM Hepes pH 7.6, 5 mM potassium glutamate, 3 mM magnesium acetate, 2 mM DTT, 2 mM Trolox, 25 nM enzyme, 10 uM dCTP; temperature not stated. PIFE with unlabeled Pol III alpha or alpha-epsilon at 25 nM showed no binding (DNA not specified, not listed). To be noted: protein: recombinant;recombinant;recombinant;recombinant, (HisTrap purification), Cy5 maleimide at C41;, copies: 1;1;1;2, label: 5' biotin-TEG and Cy3 (amino dT-C6) on template, 7 nt upstream from primer 3' terminus, 5' overhang 14 nt on template, terminal G:T mismatch.

Series [8] addresses T2, Pol III alpha (clamp-binding enhanced; …). Kind of series: smFRET; dCTP, Mg2+; kon,fast 0.6±0.1, kon,slow 0.010±0.003, koff 0.20±0.01 s-1; 20 mM Hepes pH 7.6, 5 mM potassium glutamate, 3 mM magnesium acetate, 2 mM DTT, 2 mM Trolox, 25 nM enzyme, 10 uM dCTP; temperature not stated. PIFE with unlabeled Pol III alpha or alpha-epsilon at 25 nM showed no binding (DNA not specified, not listed). Conditions: protein: recombinant;recombinant;recombinant;recombinant, (HisTrap purification), Cy5 maleimide at C41;, copies: 1;1;1;2, label: 5' biotin-TEG and Cy3 (amino dT-C6) on template, 7 nt upstream from primer 3' terminus, 5' overhang 14 nt on template, terminal G:T mismatch.

The target is the same in series [9]. Kind of series: smFRET; dCTP, Mg2+; kon,fast 0.3±0.1, kon,slow 0.020±0.002, koff 0.20±0.01 s-1; 20 mM Hepes pH 7.6, 5 mM potassium glutamate, 3 mM magnesium acetate, 2 mM DTT, 2 mM Trolox, 25 nM enzyme, 10 uM dCTP; temperature not stated. PIFE with unlabeled Pol III alpha or alpha-epsilon at 25 nM showed no binding (DNA not specified, not listed). To be noted: protein: recombinant;recombinant;recombinant;recombinant, (HisTrap purification), Cy5 maleimide at C41;, copies: 1;1;1;2, label: 5' biotin-TEG and Cy3 (amino dT-C6) on template, 7 nt upstream from primer 3' terminus, 5' overhang 14 nt on template, terminal G:A mismatch.

Series [10] has as its target T1, Pol III alpha Y453A (clamp-binding …). Kind of series: smFRET; dCTP, Mg2+; kon,fast 1.5±0.3, kon,slow 0.04±0.01, koff 0.30±0.02 s-1; 20 mM Hepes pH 7.6, 5 mM potassium glutamate, 3 mM magnesium acetate, 2 mM DTT, 2 mM Trolox, 25 nM enzyme, 10 uM dCTP; temperature not stated. PIFE with unlabeled Pol III alpha or alpha-epsilon at 25 nM showed no binding (DNA not specified, not listed). Conditions: protein: recombinant;recombinant;recombinant;recombinant, (HisTrap purification), Cy5 maleimide at C41;, copies: 1;1;1;2, label: 5' biotin-TEG and Cy3 (amino dT-C6) on template, 7 nt upstream from primer 3' terminus, 5' overhang 14 nt on template, terminal G:A mismatch.

B1: G:ddC (dsDNA)
DNA 1: CATAATATCCTCAGGAGTCCTTCGTCCTAGTACTACTCA
DNA 2: TGAGTAGTACTAGGACGAAGGACTC
modifications: 3' dideoxycytosine on primer
Take B1: the binding result in [1] and in series [2] was “binds” each time.

B2: G:C (dsDNA)
DNA 1: CATAATATCCTCAGGAGTCCTTCGTCCTAGTACTACTCA
DNA 2: TGAGTAGTACTAGGACGAAGGACTC
Take B2: the binding result in series [3] and in [4] was “binds” in each case.

B3: G:AA (dsDNA)
DNA 1: CATAATATCCTCAGGAGTCCTTCGTCCTAGTACTACTCA
DNA 2: TGAGTAGTACTAGGACGAAGGACAA
modifications: phosphorothioate not stated for this DNA
As to B3, the binding result in series [5] and in series [6] was “binds” each time.

B4: G:T (dsDNA)
DNA 1: CATAATATCCTCAGGAGTCCTTCGTCCTAGTACTACTCA
DNA 2: TGAGTAGTACTAGGACGAAGGACTT
modifications: phosphorothioate in primer (position not given)
As for B4, the binding result in series [7] and in [8] was “binds” in each case.

B5: G:A (dsDNA)
DNA 1: CATAATATCCTCAGGAGTCCTTCGTCCTAGTACTACTCA
DNA 2: TGAGTAGTACTAGGACGAAGGACTA
modifications: phosphorothioate in primer (position not given)
Take B5: the binding result in series [9] and in [10] was “binds” in each case.
